Measured values from US7754689B2, “Finger-1 peptide analogs of the TGF-β superfamily” (Wyeth LLC, priority 2006, dated 2010).
Values belong to the molecule of their own block, whether it stands above or below them. No end group written: not given here.

Experiments:
[1] = target: T1, BMP-3 (Homo sapiens, UniProt P12645); assay: Affinity column chromatography, capture and elution of BMP-3; format: binding; details: for capture of BMP-3 by column with immobilized ligand: CHO-conditioned media with 1.2 M NaCl (high salt) load; for elution of BMP-3 from column with immobilized ligand: washes, then gradient to 50 mM acetic acid pH 3, then 6M GuHCl
T1 construct: a propeptide fragment copurifies along with the mature protein; made in house; host or cells: CHO cells (conditioned medium)
T1 sequence (P12645 363-472): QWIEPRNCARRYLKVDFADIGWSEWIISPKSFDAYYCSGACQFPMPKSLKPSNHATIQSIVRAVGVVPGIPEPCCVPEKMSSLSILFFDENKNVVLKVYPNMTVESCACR
Procedure: (§1) BMP-12 was immobilized on NHS-activated Sepharose™ beads at a ratio of about 20 mg:4 mL and the resulting media combined with water or neutral saline buffer to prepare a column. CHO-conditioned media augmented with 1.2 M NaCl was loaded onto the column. In some cases, the media was preconcentrated with respect to BMP before loading. The column was washed with 15 CV (column volumes) of 1.2 M NaCl in 40 mM Na2HPO4 at pH 7.2, followed by 0.5 M arginine/0.5 M NaCl in 20 mM Tris at pH 7.5 (15 CV) and a low salt wash (50 mM ammonium acetate at pH 7, 15 CV). […] Finally, the column was eluted with 5CV of the acetic acid solution with 6M guanidine hydrochloride (GuHCl).
The eluate was analyzed using HPLC.
4 mL of the resulting resin (1.6×2.0 cm) was used to prepare a column. The column was loaded with BMP-3 and eluted as in Example 1.

[2] = target: T2, GDF-9 (Homo sapiens, UniProt O60383); assay: Affinity column chromatography, capture and elution of GDF-9; format: binding
T2 sequence (O60383 320-454): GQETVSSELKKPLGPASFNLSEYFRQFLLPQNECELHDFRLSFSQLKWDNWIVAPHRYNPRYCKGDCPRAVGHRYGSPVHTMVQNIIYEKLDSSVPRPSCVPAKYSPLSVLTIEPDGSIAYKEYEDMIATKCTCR
Procedure: as §1
A lower molecular weight contaminant was also present.

[3] = target: T3, BMP-12 (Homo sapiens, UniProt Q7Z4P5); assay: Affinity column chromatography, capture and elution of BMP-12; format: binding; details: for capture of BMP-12 by column with immobilized ligand: high salt / high ionic strength load; for elution of BMP-12 from column with immobilized ligand: washes, then gradient to 50 mM acetic acid pH 3, then 6M GuHCl
T3 sequence (Q7Z4P5 322-450): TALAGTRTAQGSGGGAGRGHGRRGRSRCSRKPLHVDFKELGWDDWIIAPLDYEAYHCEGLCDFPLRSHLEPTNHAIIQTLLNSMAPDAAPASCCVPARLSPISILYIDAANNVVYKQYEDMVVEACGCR
Procedure: as §1
BMP-12 was loaded and eluted from a BMP-12 affinity column as in Example 1.
BMP-12 was purified using a column prepared with the BMP-12 wild type peptide described in Example 7.

[4] = target: T4, BMP-12 (UniProt Q7Z4P5 322-450, limits assumed); assay: peptide resin, filter plate; load 1: 50 mM Acetic Acid, 0.1 M NaCl, pH 2.9
T4 construct: also called BMP12/GDF7
T4 sequence (looked up): T3 sequence (Q7Z4P5 322-450)
Procedure: (§2) The coupled resins, plus an unconjugated resin for use as a control, were suspended in 16% ethanol, 150 mM NaCl, and 20 mM Tris buffer at pH 7.5 at a 25% v/v ratio (e.g., 25% ethanol, 75% Tris buffer). A Tecan liquid-handling robot was employed to aliquot 200 μL of each slurry into one of eight rows of a 96 well polystyrene filter plate (0.45 μm hydrophilic filters, Whatman catalog number 770-1806). Spinning at 1200 g for 3 min removed the liquid phase, leaving 50 μL of wet resin on the filters. The resins were then equilibrated with the loading buffers listed in Table 6 (K is a coefficient characterizing the strength of protein binding to a particular resin in a particular buffer). […] The resins were loaded by transferring 150 μL from the load plate to the filter plate and then incubating 20 min on a shaking platform to facilitate binding. The filter plate was spun down and the filtrate collected in a 96 well UV plate. The protein concentration in the filtrate, or flow-through, was calculated as $(A280-A320)/1.3$. The filter plate was then washed with 150 μL of 100 mM acetic acid, followed by 150 μL of 4M guanidine-HCl and 50 mM sodium acetate at pH 4.0. The protein concentration was measured in the new filtrate as described above. […] Flow-through and acetic acid elution samples from column 4 of the plate (loaded with MES pH 6) were analyzed on a gel (FIG. 14).

[5] = target: T4, BMP-12; assay: peptide resin, filter plate; load 4: 25 mM MES pH 6.0
Procedure: as §2

[6] = target: T4, BMP-12; assay: peptide resin, filter plate; load 12: 50 mM Tris, 0.1 M NaCl, 20% MPD, pH 8.0
Procedure: as §2

[7] = target: T4, BMP-12; assay: peptide resin, filter plate; load 6: 1M CHES pH 9.7
Procedure: as §2

[8] = target: T4, BMP-12; assay: peptide resin, filter plate; load 10: 50 mM Tris, 0.1 M NaCl, 40% MPD, pH 8.0
Procedure: as §2

[9] = target: T4, BMP-12; assay: peptide resin, filter plate; load 11: 50 mM Tris, 0.25 M NaCl, 30% MPD, pH 8.0
Procedure: as §2

[10] = target: T4, BMP-12; assay: peptide resin, filter plate; load 5: 25 mM HEPES pH 7.0
Procedure: as §2

[11] = target: T4, BMP-12; assay: peptide resin, filter plate; load 3: 25 mM Na Acetate pH 5.0
Procedure: as §2

[12] = target: T4, BMP-12; assay: peptide resin, filter plate; load 2: 50 mM Acetic Acid, 0.1 M NaCl, pH 4.0
Procedure: as §2

capture of BMP-3 by column with immobilized ligand [1]: effectively captured | capture of GDF-9 by column with immobilized ligand ([2]; high salt solution load): effectively captured | capture of BMP-12 by column with immobilized ligand [3]: effectively captured | elution of BMP-12 from column with immobilized ligand [3]: eluted with acetic acid
Molecule: SDVGWNDWIVAPPGYHAFYCHGEK [SEQ ID NO: 1]
elution of BMP-3 from column with immobilized ligand [1]: eluted, along with a propeptide fragment, in acetic acid | elution of GDF-9 from column with immobilized ligand [2]: eluted with both 500 mM arginine and acetic acid

capture of BMP-3 by column with immobilized ligand [1]: effectively captured | effectiveness of immobilized ligand compared with the BMP-2 mutant ([1]; in general): less effective than the BMP-2 mutant | elution of BMP-3 from column with immobilized ligand [1]: eluted in acetic acid | capture of BMP-12 by column with immobilized ligand [3]: effectively captured | elution of BMP-12 from column with immobilized ligand [3]: eluted with acetic acid
Molecule: KELGWDDWIIAPLDYEAYHCEGLC [SEQ ID NO: 2]

100 mM HAc elution K [4]: 1 | 100 mM HAc elution conc [4]: 0.102 mg/mL | 4M Gnd, 50 mM NaAc pH 4 Strip Conc [4]: 0.046 mg/ml | Flow-through K [4]: 1 | Flow-through conc [4]: 0.349 mg/mL | 100 mM HAc elution K [5]: 1 | 100 mM HAc elution conc [5]: 0.355 mg/mL | 4M Gnd, 50 mM NaAc pH 4 Strip Conc [5]: 0.053 mg/ml | Flow-through K [5]: 38 | Flow-through conc [5]: 0.035 mg/mL | Flow-through K [6]: 1 | Flow-through conc [6]: 0.411 mg/mL | Flow-through K [7]: -1 | Flow-through conc [7]: 0.647 mg/mL | Flow-through K [8]: 0 | Flow-through conc [8]: 0.435 mg/mL | Flow-through K [9]: 0 | Flow-through conc [9]: 0.425 mg/mL | 100 mM HAc elution K [10]: 0 | 100 mM HAc elution conc [10]: 0.254 mg/mL | 4M Gnd, 50 mM NaAc pH 4 Strip Conc [10]: 0.044 mg/ml | Flow-through K [10]: 4 | Flow-through conc [10]: 0.216 mg/mL | 100 mM HAc elution K [11]: 1 | 100 mM HAc elution conc [11]: 0.285 mg/mL | 4M Gnd, 50 mM NaAc pH 4 Strip Conc [11]: 0.07 mg/ml | Flow-through K [11]: 9 | Flow-through conc [11]: 0.124 mg/mL | 100 mM HAc elution K [12]: 1 | 100 mM HAc elution conc [12]: 0.219 mg/mL | 4M Gnd, 50 mM NaAc pH 4 Strip Conc [12]: 0.089 mg/ml | Flow-through K [12]: 6 | Flow-through conc [12]: 0.156 mg/mL
Molecule: Ac-SDVGWNDWIVAPPGYHAFYSHGEK [BMP2 N-trun 1S peptide 751]
